Data on three molecules can be found in US20170158742A1 (NATIONAL UNIVERSITY OF SINGAPORE, published 2017).

The test deals with biotinylated full-length Dengue virus capsid (DENV C) protein (Dengue virus serotype 2 (NGC strain)). Nature of the test: ELISA, coated bought protein, biotinylated DENV C as probe, streptavidin-HRP. On the technique in general: In an ELISA, binding on a coated surface is turned into a signal by an enzyme label.

B1: DIM1 dimethyladenosine transferase 1 homolog (S. cerevisiae) (enzyme)
chain: MPKVKSGAIGRRRGRQEQRRELKSAGGLMFNTGIGQHILKNPLIINSIIDKAALRPTDVVLEVGPGTGNMTVKLLEKAKKVVACELDPRLVAELHKRVQGTPVASKLQVLVGDVLKTDLPFFDTCVANLPYQISSPFVFKLLLHRPFFRCAILMFQREFALRLVAKPGDKLYCRLSINTQLLARVDHLMKVGKNNFRPPPKVESSVVRIEPKNPPPPINFQEWDGLVRITFVRKNKTLSAAFKSSAVQQLLEKNYRIHCSVHNIIIPEDFSIADKIQQILTSTGFSDKRARSMDIDDFIRLLHGFNAEGIHFS
notes: also called DIMT1
Take B1: the binding result is reported as “binds”.

B2: Signal recognition particle 19kDa (other)
chain: MACAAARSPADQDRFICIYPAYLNNKKTIAEGRRIPISKAVENPTATEIQDVCSAVGLNVFLEKNKMYSREWNRDVQYRGRVRVQLKQEDGSLCLVQFPSRKSVMLYAAEMIPKLKTRTQKTGGADQSLQQGEGSKKGKGKKKK
notes: also called SRP19
With B2, the binding result was “binds”.

B3: Vaccinia related kinase 1 (enzyme)
chain: MPRVKAAQAGRQSSAKRHLAEQFAVGEIITDMAKKEWKVGLPIGQGGFGCIYLADMNSSESVGSDAPCVVKVEPSDNGPLFTELKFYQRAAKPEQIQKWIRTRKLKYLGVPKYWGSGLHDKNGKSYRFMIMDRFGSDLQKIYEANAKRFSRKTVLQLSLRILDILEYIHEHEYVHGDIKASNLLLNYKNPDQVYLVDYGLAYRYCPEGVHKEYKEDPKRCHDGTIEFTSIDAHNGVAPSRRGDLEILGYCMIQWLTGHLPWEDNLKDPKYVRDSKIRYRENIASLMDKCFPEKNKPGEIAKYMETVKLLDYTEKPLYENLRDILLQGLKAIGSKDDGKLDLSVVENGGLKAKTITKKRKKEIEESKEPGVEDTEWSNTQTEEAIQTRSRTRKRVQK
notes: also called VRK1
For the molecule B3, the binding result is given as “binds”.
